Reference: US20090291081A1

Experiments:
human IL-1α (human) = human IL-1α (human) (UniProt P01583); assay: cell-based or functional assay
human IL-1β (human) = human IL-1β (human) (UniProt P01584); assay: cell-based or functional assay
Sequence of human IL-1β (human) (P01584 117-269 limits assumed): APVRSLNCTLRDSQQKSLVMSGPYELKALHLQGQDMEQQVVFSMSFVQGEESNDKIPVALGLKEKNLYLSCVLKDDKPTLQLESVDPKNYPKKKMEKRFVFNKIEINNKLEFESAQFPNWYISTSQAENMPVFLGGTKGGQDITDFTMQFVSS

Sequence of human IL-1α (human) (P01583 113-271 limits assumed): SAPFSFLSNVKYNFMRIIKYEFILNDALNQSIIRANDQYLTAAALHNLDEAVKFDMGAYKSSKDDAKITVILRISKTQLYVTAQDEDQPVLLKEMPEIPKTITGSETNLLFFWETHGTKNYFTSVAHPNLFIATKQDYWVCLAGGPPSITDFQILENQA

Binder	Estimated EC50, IL-1α neutralization (MRC-5) (human IL-1α (human)) [nM]	Estimated EC50, IL-1β neutralization (MRC-5) (human IL-1β (human)) [nM]
ABT2-108-538x/ABT1-207 scFc (Fc fusion, part only; not given: Domain junction linker and Fc, not shown: a dimerising Fc or GST) chain, part: EVQLLESGGGLVQPGGSLRLSCAASGFTFADEGMMWVRQAPGKGLEWVSRITYSGKNTYYADSVKGRFTISRDNSKNTLYLQMNSLRAEDTAVYYCAKYTGRILGHHLFDYWGQGTLVTVSSEVQLLESGGGLIQPGGSLRLSCAASGFTFGRYYMSWVRQAPGKGLEWVSSIDYLGTNTYYADSVKGRFTISRDNSKNTLYLQMNSLRAEDTAVYYCAKLTRIRPPNFDYWGQGTLVTVSSGGGGSGGGGSGGGGS	50	0.002
ABT1-207/ABT2-108-538x scFc (Fc fusion, part only; not given: Domain junction linker and Fc, not shown: a dimerising Fc or GST) chain, part: EVQLLESGGGLIQPGGSLRLSCAASGFTFGRYYMSWVRQAPGKGLEWVSSIDYLGTNTYYADSVKGRFTISRDNSKNTLYLQMNSLRAEDTAVYYCAKLTRIRPPNFDYWGQGTLVTVSSEVQLLESGGGLVQPGGSLRLSCAASGFTFADEGMMWVRQAPGKGLEWVSRITYSGKNTYYADSVKGRFTISRDNSKNTLYLQMNSLRAEDTAVYYCAKYTGRILGHHLFDYWGQGTLVTVSSGGGGSGGGGSGGGGS	25	1.1
ABT1-98/ABT2-108-538x scFc (Fc fusion, part only; not given: Domain junction linker and Fc, not shown: a dimerising Fc or GST) chain, part: EVQLLESGGGLVQPGGSLRLSCAASGFTFDGYIMSWVRQAPGKGLEWVSTISPLGSVTYYADSVKGRFTISRDNSKNTLYLQMNSLRAEDTAVYYCAKKGPWFDYWGQGTLVTVSSEVQLLESGGGLVQPGGSLRLSCAASGFTFADEGMMWVRQAPGKGLEWVSRITYSGKNTYYADSVKGRFTISRDNSKNTLYLQMNSLRAEDTAVYYCAKYTGRILGHHLFDYWGQGTLVTVSSGGGGSGGGGSGGGGS	30	1.3
ABT2-108-538x/ABT1-98 scFc (Fc fusion, part only; not given: Domain junction linker and Fc, not shown: a dimerising Fc or GST) chain, part: EVQLLESGGGLVQPGGSLRLSCAASGFTFADEGMMWVRQAPGKGLEWVSRITYSGKNTYYADSVKGRFTISRDNSKNTLYLQMNSLRAEDTAVYYCAKYTGRILGHHLFDYWGQGTLVTVSSEVQLLESGGGLVQPGGSLRLSCAASGFTFDGYIMSWVRQAPGKGLEWVSTISPLGSVTYYADSVKGRFTISRDNSKNTLYLQMNSLRAEDTAVYYCAKKGPWFDYWGQGTLVTVSSGGGGSGGGGSGGGGS	3	< 0.001
